Measured values as given in patent publication US20250084158A1 (ABL BIO, published 2025).
Positions count from the first letter of the chain named. Names may count otherwise.

T1: human CLL-1 on cells (human, UniProt Q5QGZ9 1-265)
T1 sequence (looked up): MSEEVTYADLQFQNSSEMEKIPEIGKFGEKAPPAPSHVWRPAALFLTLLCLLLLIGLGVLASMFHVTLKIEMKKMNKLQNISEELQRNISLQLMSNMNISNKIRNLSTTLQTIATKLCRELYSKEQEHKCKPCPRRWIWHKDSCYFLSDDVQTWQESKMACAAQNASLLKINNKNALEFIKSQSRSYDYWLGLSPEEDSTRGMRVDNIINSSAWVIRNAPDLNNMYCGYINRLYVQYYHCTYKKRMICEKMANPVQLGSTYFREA

B1: ch84A2 (N12S) (antibody, V domains shown)
VH: EVQLQQSGPELVKSGASVKMSCKASGYTFTSYVIHWVKQMPGQGLEWIGLFNPYNDDVNYNEKFKGKATLTSDKYSSTAYLDLSSLTSEDSAVYYCAREGVHYGRPWFGYWGQGTLVTVSA
VL: DIKMTQSPSSMSASLGERVTITCKASQDIKSYLNWFQQKPGKSPKTLIYRASRLVDGVPARFSGSESGQDYSLTISSLEFEDMGIYYCLQYDEFPLTFGAGTKLELK
B2: ch84A2(NA/N12S) (antibody, human IgG1, kappa, N297A, V domains shown)
VH: B1 VH
VL: DIKMTQSPSSMSASLGERVTITCKASQDIKSYLNWFQQKPGKSPKTLIYRASRLVDGVPARFSGSESGQDYSLTISSLEFEDMGIYYCLQYDEFPLTFGAGTKLELKR
notes: Chimeric, human IgG1 N297A and human kappa; also called ch84C2; chimeric antibody of 84A2
B3: ch33C2(NA) (antibody, human IgG1, kappa, N297A, V domains shown)
VH: EVQLQQSGPELVKPGASMKISCKASGYSFTGYAMNWVKQSHGKNLEWIGLINPYNGGAMYNQKFKGKATLTVDKSTSTAYMELLSLTSEDSAVYYCARDYRYEGHLDYWGQGTTLTVSS
VL: QIVLTQSPVIMSASPGEKVTMTCSATSSVSYMHWYQQKSGTSPKRWIYDTSKLASGVPVRFSGSGSGTSYSLTISRMEAEDAATYYCQQWSSDSPTFGVGTKLELKR
notes: also called chimeric antibody of 33C2
B4: 33C2 (mouse hybridoma clone) (antibody, V domains shown)
VH: B3 VH with E103D
VL: QIVLTQSPVIMSASPGEKVTMTCSATSSVSYMHWYQQKSGTSPKRWIYDTSKLASGVPVRFSGSGSGTSYSLTISRMEAEDAATYYCQQWSSDSPTFGVGTKLELK
notes: Mouse monoclonal antibody from a Balb/c hybridoma; also called murine 33C2
B5: hu33C2 (VH3/VL6 (M12)) (antibody, V domains shown)
VH: QVQLVQSGAEVKKPGASVKVSCKASGYSFTGYAMNWVRQAPGQRLEWIGLINPYNGGAMYNQKFKGRATLTVDTSASTAYMELSSLRSEDTAVYYCARDYRYEGHLDYWGQGTLVTVSS
VL: EIVLTQSPATLSLSPGERATLSCSATSSVSYMHWYQQKPGQAPRRWIYDTSKLASGIPARFSGSGSGTSYTLTISSLEPEDFAVYYCQQWSSDSPTFGQGTKLEIK
B6: hu16C6 (VH1/VL1(M14)) (antibody, V domains shown)
VH: QVQLVQSGAEVKKPGASVKISCKASGYSFTGYYMHWVKQSHGQGLEWIGHVNPYNGATSFNRNFKDRASLTVDTSTSTVYMELSSLRSEDSAVYYCGRSAYGYYERHFDYWGQGTLVTVSS
VL: DIVMTQSPDSLAVSLGERATINCKASQSVDYDADSYMNWYQQKPGQPPKLLIYAASNLQSGVPDRFSGSGSGTDFTLTISSLQAEDVAVYYCQQSDRDPLTFGGGTKLEIK
B7: 16C6 (mouse hybridoma clone) (antibody, V domains shown)
VH: EVQLQQSGPELVKPGASVKISCKASGYSFTGYYMHWVKQSHVKSLEWIGHVNPYNGATSFNRNFKDKASLTVDKSSSTAYMELHSLTSEDSAVYYCGRSADGYYERHFDYWGQGTTLTVSS
VL: DIVLTQSPASLAVSLGQRATISCKASQSVDYDGDSYMNWYQQKPGQPPKLLIYAASNLQSGIPARFSGSGSGTDFTLNIHPVEEEDAATYYCQQSDKDPLTFGAGTKLELK
notes: Mouse monoclonal antibody from a Balb/c hybridoma; also called murine 16C6
B8: ch16C6(NA) (antibody, human IgG1, kappa, N297A, V domains shown)
VH: B7 VH with D101Y
VL: DIVLTQSPASLAVSLGQRATISCKASQSVDYDADSYMNWYQQKPGQPPKLLIYAASNLQSGIPARFSGSGSGTDFTLNIHPVEEEDAATYYCQQSDRDPLTFGAGTKLELKR
notes: also called chimeric antibody of 16C6

Columns and labels:
human CLL-1 on cells [1] = target: T1, human CLL-1 on cells; assay: cell-based or functional assay
human CLL-1 on cells [2] = target: T1, human CLL-1 on cells; assay: FACS, HL60 cells (2nd Ab only 5.09)
Method: (§1) To evaluate cell binding property, the chimeric antibody candidates of Example 1.2. were analyzed in CLL1 negative cells (HEK293E and Jurkat) and various CLL1 expressing cancer cells by using FACS.
(§2) Briefly, cells were incubated with antibodies at 4° C. for 1 hr. Firstly, the cells were washed with an assay buffer (1% BSA in PBS). Then, an anti-human IgG Fc conjugated with FITC (Fluorescein isothiocyanate) (Sigma, F9512) was added to each well and incubated at 4° C. for 1 hr. After wash, the MFI (Median Fluorescence Intensity) of FITC was measured by BD FACS Cal ibur (BD Biosciences).

human CLL-1 on cells [3] = target: T1, human CLL-1 on cells; assay: FACS, PL21 cells (2nd Ab only 2.82)
Method: as §1, §2

human CLL-1 on cells [4] = target: T1, human CLL-1 on cells; assay: FACS, U937 cells (2nd Ab only 4.77)
Method: as §1, §2

human CLL-1 on cells [5] = target: T1, human CLL-1 on cells; assay: FACS, EOL-1 cells (2nd Ab only 2.53)
Method: as §1, §2

human CLL-1 on cells [6] = target: T1, human CLL-1 on cells; assay: FACS, OCI-AML2 cells (2nd Ab only 3.28)
Method: as §1, §2

human CLL-1 on cells [7] = target: T1, human CLL-1 on cells; assay: FACS, huCLL1_293E cells (2nd Ab only 5.05)
Method: as §1, §2

hFc-Human CLL1 = target: T2, hFc-Human CLL1 (human); assay: ELISA, coated antigen
T2 construct: Human CLL1 with N-terminal human IgG1 Fc, made in-house; also called hFc-huCLL1
Method: Antibody candidates of Example 1.2. were analyzed to compare the ligand binding activity by ELISA, using huCLL1-His and hFc-huCLL1 as ligands.
(§3) Briefly, the antigen (ligand) was coated overnight at 4VC. The antigen coated plate was blocked with 1% BSA in PBS at 4VC for 2 hr and incubated with antibodies at 4° C. for 2 hrs. To find out the EC₅₀ (nM) of each antibody, 4-fold serial dilutions were prepared from an antibody solution of a concentration of 50 nM to 0.2 pM and diluted antibodies were treated to each well, and the plate was washed with 1×PBST. Then Goat anti-Human IgG F(ab′)2 cross-adsorbed secondary antibody conjugated with HRP (horseradish peroxidase) (Thermo, 31414) was added to each well and incubated at 4° C. for 1 hr. After wash, a TMB (3,3′,5,5′-tetramethylbenzidine) substrate (Sigma, T0440) was added to each well and the OD at 450 nm was measured by an ELISA plate reader.

hFc-Cynomolgus CLL1 = target: T3, hFc-Cynomolgus CLL1 (cynomolgus); assay: ELISA, 50 and 100 ng/well coated antigen; stronger than reference 6E7
T3 construct: Cynomolgus CLL1 with N-terminal human IgG1 Fc, made in-house
Method: as §3
Continuously, antibody candidates of Example 1.2. were analyzed to compare the ligand binding activities by ELISA, using 50 ng/well and 100 ng/well of hFc-Cynomolgus CLL1 as a ligandin the same manner as described above. Genentech's anti-CLL-1 antibody 6E7 was used as a reference.

human CLL-1 on cells [8] = target: T1, human CLL-1 on cells; assay: hybridoma screening, ELISA and FACS

T3 sequence (chain, as listed by the source limits assumed): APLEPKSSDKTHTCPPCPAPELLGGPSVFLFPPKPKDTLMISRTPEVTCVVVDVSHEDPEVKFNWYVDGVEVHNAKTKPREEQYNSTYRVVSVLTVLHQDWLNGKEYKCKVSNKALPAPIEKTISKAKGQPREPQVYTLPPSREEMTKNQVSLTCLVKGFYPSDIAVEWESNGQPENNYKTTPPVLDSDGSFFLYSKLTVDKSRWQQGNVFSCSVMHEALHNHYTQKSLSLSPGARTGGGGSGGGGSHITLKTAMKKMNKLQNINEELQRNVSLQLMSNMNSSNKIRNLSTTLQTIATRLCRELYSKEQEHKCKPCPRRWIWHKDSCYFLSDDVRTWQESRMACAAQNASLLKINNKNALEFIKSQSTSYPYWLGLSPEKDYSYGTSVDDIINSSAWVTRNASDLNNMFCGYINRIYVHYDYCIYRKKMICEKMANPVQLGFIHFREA

Binder | ADCC reporter bioassay (luminescence), EC50 (human CLL-1 on cells [1]) [pM] | MFI(FL1-H) (human CLL-1 on cells [2]) | MFI(FL1-H) (human CLL-1 on cells [3]) | MFI(FL1-H) (human CLL-1 on cells [4]) | MFI(FL1-H) (human CLL-1 on cells [5]) | MFI(FL1-H) (human CLL-1 on cells [6]) | MFI(FL1-H) (human CLL-1 on cells [7]) | further results
B1 | 416 | – | – | – | – | – | – | –
B2 | – | 14.5 | 27.6 | 30.5 | 3.36 | 13 | 72.5 | –
B3 | – | 19.1 | 38.8 | 48.1 | 3.6 | 19.3 | 77.7 | binding result (hFc-Human CLL1): binds; binding result (hFc-Cynomolgus CLL1): binds
B4 | – | – | – | – | – | – | – | binding result (human CLL-1 on cells [8]): binds
B5 | 140 | – | – | – | – | – | – | –
B6 | 130 | – | – | – | – | – | – | –
B7 | – | – | – | – | – | – | – | binding result (human CLL-1 on cells [8]): binds
B8 | – | 18.5 | 38.6 | 45.8 | 3.73 | 19.5 | 115 | binding result (hFc-Human CLL1): binds; binding result (hFc-Cynomolgus CLL1): binds
